Assay results reported in patent US20250066503A1, “CELL INJURY INDUCING THERAPEUTIC DRUG FOR USE IN CANCER THERAPY” (CHUGAI SEIYAKU KABUSHIKI KAISHA, priority 2016, published 2025).

Experiments:
[1] = test system: cell lines derived from various cancer types (GPC3-expressing target cells); assay: TDCC activity by LDH release test with human PBMCs as effector cells; format: cell-based; settings: about 24 hours
Method: TDCC activity of each test antibody was measured by the method described below. Human peripheral blood mononuclear cells (hereinafter referred to as human PBMCs) were used as effector cells and TDCC activity of each test antibody was measured as follows.
50 ml of peripheral blood was collected from a healthy person in Chugai Pharmaceutical Co. Ltd. using a syringe pre-loaded with 500 μl of 5000 units/5 ml heparin solution. The peripheral blood diluted two-fold with PBS was divided into four aliquots and added to Leucosep tubes for lymphocyte separation (GE Healthcare) which had been loaded with 15 ml of Ficoll-Paque PLUS and centrifuged in advance. […]
TDCC activity was assessed by an LDH release method (LDH Cytotoxicity Detection Kit, TAKARA). […] The absorbance at 490 to 492 nm was measured with a plate reader. The reference wavelength used was 600 to 620 nm, and the absorbance was subtracted from that at 490 to 492 nm. […]
Cytotoxic activity was determined based on this equation.
Here, A represents the absorbance of a mixture of target cells, effector cells, and antibody; B represents the absorbance of effector cells; C represents the absorbance of target cells; and D represents the absorbance of target cells with Triton X-100 added.

[2] = test system: MKN74, FU-97, SNU-1, SCC152, KYSE70, PC-10, HuH-7, TOV-21G, RMG-1 and STM-03 xenograft tumors; assay: In vivo drug efficacy, NOD scid/T cell-injected model, xenograft tumors of various cancer types; set-up: species or system NOD scid mice; settings: 1 mg/kg once through the tail vein; compared to the vehicle-administered group
Method: Methods called an NOD scid/T cell-injected model, a humanized NOG mouse model, and a human CD3εδγ gene-modified mouse model were used in the in vivo drug efficacy evaluation. Assay using an NOD scid/T cell-injected model was performed as follows. […] T cells expanded by culturing human PBMCs in vitro were injected into the NOD scid mice with confirmed tumor establishment. The mice were treated by administering bispecific antibody-38 and bispecific antibody-30, -31, -32, or -33. Assay using a humanized NOG mouse model was performed as follows. CD34-positive hematopoietic stem cells derived from umbilical cord blood were transplanted into NOG mice by tail vein injection. Human T cells are constantly supplied in the mice, which are called humanized NOG mice. The PC-10 cell line was transplanted into humanized NOG mice. The humanized NOG mice with confirmed establishment of PC-10 tumor were treated by administering antibody-38. Assay using a human CD3εδγ gene-modified mouse model was performed as follows. Cells of mouse-derived cell line forced to express human GPC3 were transplanted into a human CD3εδγ gene-modified mouse model, which had been prepared according to Reference Example 10. The human CD3εδγ gene-modified mice with confirmed tumor establishment were treated by administering antibody-38. […]

B1: antibody-38: anti-human CD3ε chain and anti-human GPC3 bispecific antibody; H chains SEQ ID NO: 385 and 402, common L chains SEQ ID NO: 410 (antibody)
heavy 1: QVQLVQSGAEVKKPGASVTVSCKASGYTFTDYEMHWIRQPPGEGLEWIGAIDGPTPDTAYSEKFKGRVTLTADKSTSTAYMELSSLTSEDTAVYYCTRFYSYTYWGQGTLVTVSSASTKGPSVFPLAPCSRSTSESTAALGCLVKDYFPEPVTVSWNSGALTSGVHTFPAVLQSSGLYSLSSVVTVPSSSLGTQTYTCNVDHKPSNTKVDKRVESKYGPPCPPCPAPEFRGGPKVFLFPPKPKDTLMISRTPEVTCVVVDVSQEDPEVQFNWYVDGVEVHNAKTKPREEQFASTYRVVSVLTVLHQDWLNGKEYKCKVSNKGLPSSIEKTISKAKGQPREPQVYTLPPSQEEMTKNQVSLTCLVKGFYPSDIAVEWESNGQPENNYKTTPPVLDSDGSFFLYSKLTVDKSRWQEGNVFSCSVMHEALHNHYTQESLSLSP
heavy 2: QVQLVESGGGVVQPGGSLRLSCAASGFTFSNAWMHWVRQAPGKGLEWVAQIKDKSQNYATYVAESVKGRFTISRADSKNSIYLQMNSLKTEDTAVYYCRYVHYAAGYGVDIWGQGTTVTVSSASTKGPSVFPLAPCSRSTSESTAALGCLVKDYFPEPVTVSWNSGALTSGVHTFPAVLQSSGLYSLSSVVTVPSSSLGTKTYTCNVDHKPSNTKVDKRVESKYGPPCPPCPAPEFRGGPKVFLFPPKPKDTLMISRTPEVTCVVVDVSQEDPEVQFNWYVDGVEVHNAKTKPREEQFASTYRVVSVLTVLHQDWLNGKEYKCKVSNKGLPSSIEKTISKAKGQPREPQVYTLPPSQKEMTKNQVSLTCLVKGFYPSDIAVEWESNGQPENNYKTTPPVLDSDGSFFLYSKLTVDKSRWQEGNVFSCSVMHEALHNHYTQKSLSLSP
light: DIVMTQSPLSLPVTPGEPASISCRSSQPLVHSNRNTYLHWYQQKPGQAPRLLIYKVSNRFSGVPDRFSGSGSGTDFTLKISRVEAEDVGVYYCGQGTQVPYTFGQGTKLEIKRTVAAPSVFIFPPSDEQLKSGTASVVCLLNNFYPREAKVQWKVDNALQSGNSQESVTEQDSKDSTYSLSSTLTLSKADYEKHKVYACEVTHQGLSSPVTKSFNRGEC
modifications: An artificially generated sequence
B1 was tested, and the “TDCC activity (LDH release)” value [1] was “clearly observed” and the anti-tumor effect [2] was “evident anti-tumor effect”.
